Results on 13 molecules are retold here after patent US20230227572A1 (HEFEI TG IMMUNOPHARMA, published 2023).

Residue numbers refer to the chain shown, from its start. Names and notes keep the numbering of the source.

The target in assay [1] is T1, recombinant human PVRIG-human IgG1 Fc fusion protein (human).
T1 construct: no linker is told; also called human PVRIG-Fc fusion protein
The assay is described as follows: SPR (Biacore), human PVRIG-human IgG1 Fc on chip, antibody in flow, 1:1 model. On the procedure:
The binding kinetics and dissociation equilibrium constant (KD) of the antibodies of the present disclosure to human PVRIG were determined using the surface plasmon resonance (Biacore) assay. Briefly, a CMS chip was coated with human PVRIG-human IgG1 Fc fusion protein, and after being blocked, antibody solutions of different concentrations passed through the CMS chip at a fixed flow rate and bound to antigen for 2 min, followed by transfer to dissociation buffer for 6 min for determination of the dissociation rate. The kinetics were analyzed using a 1:1 binding model.
In general terms: SPR reads the build-up and loss of mass on a sensor chip optically.

The target in assay [2] is T2, human PVRIG protein on the cell membrane surface (human, UniProt Q6DKI7 41-326).
T2 construct: Also used here for the natural PVRIG on NKG cells and human lymphocytes; also called 293T-human PVRIG cell line; PVRIG on NKG cell line
T2 sequence: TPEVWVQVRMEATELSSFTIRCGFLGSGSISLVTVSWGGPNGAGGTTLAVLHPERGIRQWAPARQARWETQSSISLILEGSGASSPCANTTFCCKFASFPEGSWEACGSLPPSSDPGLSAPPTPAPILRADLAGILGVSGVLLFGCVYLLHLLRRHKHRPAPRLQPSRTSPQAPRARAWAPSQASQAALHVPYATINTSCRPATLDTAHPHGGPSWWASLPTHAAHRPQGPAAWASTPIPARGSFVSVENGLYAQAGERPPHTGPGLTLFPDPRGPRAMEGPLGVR
Put plainly: flow cytometry on 293T-human PVRIG cells, AF647 goat anti-mouse IgG, percent positive cells. How it is done: The activity of murine antibodies from different clones in binding to human PVRIG protein on the cell membrane surface was evaluated by flow cytometry. The experimental procedure was as follows:
The 293T-human PVRIG cell line was harvested, washed with 1×PBS and resuspended, the cells were counted. Then […] were placed into each 1.5 ml Ep tube, the respective murine antibody (Antibody 1, Antibody 2, Antibody 3, or Antibody 4) was added at different concentrations, the mixture was incubated at 4° C. for 30 min, then washed with 1×PBS, and centrifuged at 3,500 rpm for 5 min to harvest the cells. The cell pellet was resuspended in 100 μl of 1×PBS, a AF647-labeled goat anti-mouse IgG antibody (available from Biolegend) was added, the mixture was incubated at 4° C. for 30 min in the dark, followed by washing twice with 1×PBS and harvesting the cells by centrifugation at 3,500 rpm for 5 min. The cell pellet was resuspended with 200 μl of 1×PBS and measured using a flow cytometer (BD LSR II).
(In general: A flow cytometer gives signals particle by particle.)

In assay [3] the target is T1, recombinant human PVRIG-human IgG1 Fc …. Put plainly: ELISA, plate coated with human PVRIG-human IgG1 Fc at 1.0 µg/ml, HRP goat anti-mouse IgG, OD450. On the procedure:
The activity of the murine antibodies from different clones in binding to the human PVRIG-Fc fusion protein was evaluated by ELISA. The experimental procedure was as follows:
The recombinant human PVRIG-human IgG1 Fc fusion protein was diluted to 1.0 μg/ml in 1×PBS (phosphate buffer), the dilution was plated onto a 96-well ELISA plate overnight at 4° C. by 100 μl/well, the plate was washed 3 times with PBST (0.05% Tween20-PBS) and blocked with 1% BSA, followed by incubation at 37° C. for 2 h. The plate was washed 3 times with PBST, and murine antibodies (Antibody 1, Antibody 2, Antibody 3, or Antibody 4) diluted in multiple ratios were respectively added to set 8 concentrations, and the mixture was incubated at 37° C. for 1 h using mouse IgG1 (available from Biolegend) as a negative control at 100 μl/well. The plate was washed 3 times with PBST, and 100 μl of horseradish peroxidase (HRP)-labeled goat anti-mouse IgG antibody (available from BOSTER, 1:10,000 dilution) was added to each well, and the mixture was incubated at 37° C. for 1 h. After washing, 100 μl of TMB substrate solution was added to each well for developing for 10 to 15 min in the dark, 100 μl of stop solution (2M H2SO4) was added to each well, the solution was measured with a microplate reader immediately after the reaction stopped, and the absorbance at 450 nm (OD450) was read.
Target sequence in this assay (chain, as listed by the source limits assumed): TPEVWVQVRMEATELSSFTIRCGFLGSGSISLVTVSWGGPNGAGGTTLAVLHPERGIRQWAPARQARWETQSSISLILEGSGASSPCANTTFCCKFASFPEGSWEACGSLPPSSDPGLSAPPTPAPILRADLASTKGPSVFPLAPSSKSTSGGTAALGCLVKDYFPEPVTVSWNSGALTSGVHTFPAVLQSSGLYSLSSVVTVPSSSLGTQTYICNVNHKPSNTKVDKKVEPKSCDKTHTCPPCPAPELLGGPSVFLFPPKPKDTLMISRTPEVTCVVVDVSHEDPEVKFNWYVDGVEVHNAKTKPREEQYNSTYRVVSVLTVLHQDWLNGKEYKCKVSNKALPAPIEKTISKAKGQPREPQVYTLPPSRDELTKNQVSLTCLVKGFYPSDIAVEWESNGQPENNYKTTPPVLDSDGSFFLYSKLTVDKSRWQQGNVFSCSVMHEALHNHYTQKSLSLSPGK

The target of assay [4] is T2, human PVRIG protein on the cell …. Put plainly: flow cytometry on 293T-human PVRIG cells, AF647 mouse anti-human IgG-Fc, percent positive cells. How it is done:
The activity of the humanized antibodies in binding to human PVRIG was evaluated by flow cytometry in the experiment.
The 293T-human PVRIG cell line was harvested, and washed and resuspended with 1×PBS to count the cells. Then 2×10^5 cells were placed into each 1.5 ml Ep tube, the respective humanized antibody was added at different concentrations, the mixture was incubated at 4° C. for 30 min, then washed with 1×PBS, and centrifuged at 3,500 rpm for 5 min to harvest the cells. The cell pellet was resuspended in 100 μl of 1×PBS, a AF647-labeled mouse anti-human IgG-Fc antibody (available from Biolegend) was added, the mixture was incubated at 4° C. for 30 min in the dark, followed by washing twice with 1×PBS and harvesting the cells by centrifugation at 3,500 rpm for 5 min. The cell pellet was resuspended with 200 μl of 1×PBS and measured using a flow cytometer (BD LSR II), and the analysis statistical results were shown in FIG. 16. It can be seen that all the humanized antibodies were ablet to specifically bind to the human PVRIG protein on the cell membrane surface.

B1: Antibody 2 (antibody, V domains shown)
VH: QVQLQQSGAELTKPGASVKISCKATGYTFSTFAIDWIKQRPGHGLAWIGEILPGGNNTNYNEKFKGKATFTADTSSNTAYMHLSSLTSEDSAVYYCSTYWFAYWGQGTLVTVSA
VL: DIVMTQSPSSLSVSAGEKVTMSCKSSQSLLNSGNQKNYLAWYQQKPGQPPKLLMYGASTRESGVPDRFTGSGSGTDFTLTISSVQAEDLAVYYCQNAHSYPPAFGAGTKLELK
notes: Murine monoclonal antibody from hybridoma ascites; also called murine antibody Antibody 2
For orientation: Kd means the concentration at which binding is half-saturated. Usually koff stands for the rate constant with which the complex falls apart. For orientation: kon means a measure of how fast the partners come together. Broadly, the EC50 (read off the curve) is the concentration that produces a half-maximal response. For B1, in assay [1], the equilibrium dissociation constant (Kd) amounted to 1.51 nM, the dissociation rate constant (koff) stood at 0.000137 s⁻¹ and the kon came out at 90500 M⁻¹ s⁻¹. Also, the concentration for a half-maximal effect (EC50 (read off the curve)) in assay [2] was roughly 0.03 µg/mL. In addition, the concentration giving a half-maximal response (EC50 (read off the curve)) in assay [3] was roughly 0.03 µg/mL.

B2: Antibody 1 (antibody, V domains shown)
VH: B1 VH with T12M, H43P, G55I
VL: B1 VL with S22T, A103T
notes: Murine monoclonal antibody from hybridoma ascites, purified on Protein G; also called murine antibody Antibody 1
Take B2: in assay [1], the dissociation constant (Kd) came to 0.316 nM, the koff was 4.19e-05 s⁻¹ and the association rate constant (kon) turned out to be 133000 M⁻¹ s⁻¹. For the same molecule, in assay [2], the “EC50 (read off the curve)” value was roughly 0.02 µg/mL. In assay [3], the “EC50 (read off the curve)” value is roughly 0.02 µg/mL.

B3: Antibody 3 (antibody, V domains shown)
VH: EVQLQQSGPELVKPGASMKISCKASGYSFTAYTMNWVKQSHGKNLEWIGLINPYNGGTSYNQKFKGKATLTGDKSSSTAYMELLSVTSEDSAVYFCAREGNYYGSRGDFDYWGQGTTLTVSS
VL: DILLTQSPAILSVSPGERVSFSCRASQTIVTNILWYQQRTNGSPRLLIRYASESISGIPSRFSGSGSGTDFTLSINSVESEDIAHYYCQQSHSWPFTFGSGTKLEIK
notes: Murine monoclonal antibody from hybridoma ascites; also called murine antibody Antibody 3
B3: in assay [1], the Kd was found to be 0.99 nM, the koff was found to be 8.82e-05 s⁻¹ and the on-rate constant (kon) turned out to be 89100 M⁻¹ s⁻¹. For the same molecule, in assay [2], the “EC50 (read off the curve)” value is roughly 0.1 µg/mL. Moreover, the concentration giving a half-maximal response (EC50 (read off the curve)) in assay [3] was roughly 0.02 µg/mL.

B4: Antibody 4-hu4 (antibody, human IgG4 S228P, kappa, V domains shown)
VH: EVQLVQSGAEVKKPGSSVKVSCKASGGTFSSFSIEWVRQAPGQGLEWIGEILPGSNSTNYNEKFKGRVTFTADESTSTAYMELSSLRSEDTAVYYCSSYWFAYWGQGTLVTVSS
VL: DIVMTQSPDSLAVSLGERATINCKSSQSLLNSGNQKNYLAWYQQKPGQPPKLLIYGASTRESGVPDRFSGSGSGTDFTLTISSLQAEDVAVYYCQNAHSYPPTFGQGTKLEIKR
notes: Humanized Antibody 4; heavy chain IgG4 with S228P already in the entry
Regarding B4, in assay [1], the Kd was 0.236 nM, the off-rate constant (koff) worked out at 4.44e-05 s⁻¹ and the kon was 188000 M⁻¹ s⁻¹. For the same molecule, the half-maximal effective concentration (EC50 (read off the curve)) in assay [4] was roughly 20 ng/mL.

B5: Antibody 4-hu1 (antibody, human IgG4 S228P, kappa, V domains shown)
VH: B4 VH with I48M, F70I, S97A, S98R
VL: B4 VL
notes: as for B4
With B5, in assay [1], the Kd was 0.118 nM, the koff turned out to be 2.32e-05 s⁻¹ and the association rate constant (kon) came out at 197000 M⁻¹ s⁻¹.

B6: Antibody 4-hu10 (antibody, human IgG4 S228P, kappa, V domains shown)
VH: B4 VH with G27Y, E74T, S77N
VL: B4 VL
notes: as for B4
For the molecule B6, in assay [1], the dissociation constant Kd is no more than 0.004 nM, the dissociation rate constant (koff) is no more than 1e-06 s⁻¹ and the kon is 250000 M⁻¹ s⁻¹. In addition, in assay [4], the “EC50 (read off the curve)” value is roughly 0.5 ng/mL.

B7: Antibody 4-hu5 (antibody, human IgG4 S228P, kappa, V domains shown)
VH: B4 VH with E74T, S77N
VL: B4 VL
notes: as for B4
Consider B7, for which, in assay [1], the Kd is 0.015 nM, the off-rate (koff) was 3.54e-06 s⁻¹ and the kon is 236000 M⁻¹ s⁻¹.

B8: Antibody 4-hu7 (antibody, human IgG4 S228P, kappa, V domains shown)
VH: B4 VH with G27Y, I48M, F70I
VL: B4 VL
notes: as for B4
With B8, in assay [1], the dissociation constant (Kd) is no more than 0.00361 nM, the off-rate constant (koff) is no more than 1e-06 s⁻¹ and the kon was found to be 277000 M⁻¹ s⁻¹.

B9: Antibody 4-hu6 (antibody, human IgG4 S228P, kappa, V domains shown)
VH: B4 VH with R67K, V68A, E74T, S77N
VL: B4 VL
notes: Humanized Antibody 4; heavy chain IgG4 with S228P already in the entry; also called Antibody 4-hub [sic]
In the case of B9, in assay [1], the Kd was no more than 0.00356 nM, the koff is no more than 1e-06 s⁻¹ and the on-rate (kon) worked out at 281000 M⁻¹ s⁻¹.

B10: Antibody 4-hu11 (antibody, human IgG4 S228P, kappa, V domains shown)
VH: B4 VH with G27Y, R67K, V68A, E74T, S77N
VL: B4 VL
notes: as for B4
In the case of B10, in assay [1], the Kd was no more than 0.00422 nM, the off-rate (koff) is no more than 1e-06 s⁻¹ and the kon turned out to be 237000 M⁻¹ s⁻¹. Also, the “EC50 (read off the curve)” value in assay [4] is roughly 3 ng/mL.

B11: Antibody 4-hu2 (antibody, human IgG4 S228P, kappa, V domains shown)
VH: B4 VH with I48M, F70I
VL: B4 VL
notes: as for B4
B11: in assay [1], the Kd stood at 0.239 nM, the dissociation rate constant (koff) worked out at 6.38e-05 s⁻¹ and the association rate constant (kon) was found to be 266000 M⁻¹ s⁻¹.

B12: Antibody 4-hu3 (antibody, human IgG4 S228P, kappa, V domains shown)
VH: B4 VH with I48M
VL: B4 VL
notes: as for B4
Regarding B12, in assay [1], the Kd came out at 0.0916 nM, the koff turned out to be 1.95e-05 s⁻¹ and the association rate constant (kon) is 212000 M⁻¹ s⁻¹.

B13: Antibody 4-hu8 (antibody, human IgG4 S228P, kappa, V domains shown)
VH: B4 VH with G27Y, I48M
VL: B4 VL
notes: as for B9
Take B13: in assay [1], the dissociation constant Kd was no more than 0.00505 nM, the koff is no more than 1e-06 s⁻¹ and the kon is 198000 M⁻¹ s⁻¹. In addition, the “EC50 (read off the curve)” value in assay [4] was roughly 1 ng/mL.
